The Kd is the constant that tells how readily two partners part at equilibrium.

Assay [1] addresses T1, human FcRn (soluble, complexed with β2-microglobulin) (human, UniProt P61769 21-119). Nature of the assay: SPR pH7.0.
Assay [2] has as its target T2, mouse FcγRIIb (mouse, UniProt P08101 40-217, limits assumed).
T2 construct: bought; also called mFcgRIIb; mFcgRII
T2 sequence (looked up): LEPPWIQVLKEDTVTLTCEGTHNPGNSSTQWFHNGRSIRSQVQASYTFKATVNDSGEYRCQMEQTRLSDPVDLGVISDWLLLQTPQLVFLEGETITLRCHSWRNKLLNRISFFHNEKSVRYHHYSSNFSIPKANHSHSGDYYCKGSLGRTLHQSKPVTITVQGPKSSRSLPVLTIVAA
Nature of the assay: SPR pH7.4.

Assay [3] deals with T3, mouse FcγRIII (mouse, UniProt P08508 31-215).
T3 construct: bought; also called mFcgRIII
T3 sequence (looked up): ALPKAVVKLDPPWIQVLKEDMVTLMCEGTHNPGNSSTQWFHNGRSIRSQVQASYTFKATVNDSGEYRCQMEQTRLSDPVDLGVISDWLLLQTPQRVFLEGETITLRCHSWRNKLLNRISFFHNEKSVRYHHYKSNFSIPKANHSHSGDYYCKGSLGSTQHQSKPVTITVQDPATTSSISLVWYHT
Nature of the assay: SPR pH7.4.

Assay [4] has as its target T4, mouse FcγRIV (mouse, UniProt A0A0B4J1G0 21-203).
T4 construct: bought; also called mFcgRIV
T4 sequence: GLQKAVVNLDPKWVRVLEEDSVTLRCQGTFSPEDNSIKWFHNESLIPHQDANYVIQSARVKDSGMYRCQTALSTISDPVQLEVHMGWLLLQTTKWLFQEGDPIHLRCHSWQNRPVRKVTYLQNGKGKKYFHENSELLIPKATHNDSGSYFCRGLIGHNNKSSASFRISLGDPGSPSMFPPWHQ
Kind of assay: SPR pH7.4.

Assay [5] addresses T5, mouse FcγRI (mouse, UniProt P26151 25-297).
T5 construct: bought; also called mFcgRI
T5 sequence (looked up): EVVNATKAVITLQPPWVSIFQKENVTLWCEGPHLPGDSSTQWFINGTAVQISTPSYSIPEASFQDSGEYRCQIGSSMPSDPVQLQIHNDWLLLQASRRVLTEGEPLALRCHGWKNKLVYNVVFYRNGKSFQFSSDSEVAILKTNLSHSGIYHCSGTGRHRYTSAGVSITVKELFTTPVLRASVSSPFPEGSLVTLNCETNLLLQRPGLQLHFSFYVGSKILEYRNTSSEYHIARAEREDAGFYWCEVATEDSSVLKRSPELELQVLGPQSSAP
Nature of the assay: SPR pH7.4.

The target of assay [6] is T1, human FcRn (soluble, complexed with …). Kind of assay: SPR pH7.0. This is another data set of the same source.
The target is the same in assay [7]. Nature of the assay: SPR pH7.0. This is another data set of the same source.
Assay [8] has the same target. Nature of the assay: SPR pH7.0. The source holds these as a separate data set.
Assay [9] has as its target T2, mouse FcγRIIb. Nature of the assay: SPR pH7.4. Set-up: unit not given here.
Assay [10] deals with T3, mouse FcγRIII. Nature of the assay: SPR pH7.4. More on the design: unit not given here.
The target in assay [11] is T4, mouse FcγRIV. Kind of assay: SPR pH7.4. Set-up: unit not given here.
For assay [12], the target named is T5, mouse FcγRI. Nature of the assay: SPR pH7.4. More on the design: unit not given here.
The target of assay [13] is T1, human FcRn (soluble, complexed with …). Nature of the assay: SPR pH7.0. The source holds these as a separate data set.
The target is the same in assay [14]. Nature of the assay: SPR pH7.0. The source holds these as a separate data set.
The target is the same in assay [15]. Kind of assay: SPR pH7.0. The source holds these as a separate data set.

Changes are numbered by the printed parent chain. Read-outs that look alike come from different tables or passages of the source.

T1 sequence (P61769 21-119, one chain of several): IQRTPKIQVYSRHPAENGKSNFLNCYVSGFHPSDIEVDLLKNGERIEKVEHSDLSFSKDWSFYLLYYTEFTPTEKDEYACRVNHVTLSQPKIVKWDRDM

B1: VH3/L(WT)-IgG1-F890 (antibody)
chain 1: QVQLQESGPGLVKPSETLSLTCAVSGHSISHDHAWSWVRQPPGEGLEWIGFISYSGITNYNPSLQGRVTISRDNSKNTLYLQMNSLRAEDTAVYYCARSLARTTAMDYWGEGTLVTVSSASTKGPSVFPLAPSSKSTSGGTAALGCLVKDYFPEPVTVSWNSGALTSGVHTFPAVLQSSGLYSLSSVVTVPSSSLGTQTYICNVNHKPSNTKVDKKVEPKSCDKTHTCPPCPAPELLGGPSVFLFPPKPKDTLYISRTPEVTCVVVDVSHEDPEVKFNWYVDGVEVHNAKTKPREEQYNSTYRVVSVLTVLHQDWLNGKEYKCKVSNKALPAPIEKTISKAKGQPREPQVYTLPPSRDELTKNQVSLTCLVKGFYPSDIAVEWESNGQPENNYKTTPPVLDSDGSFFLYSKLTVDKSRWQQGNVFSCSVMHEALHYHVTQKSLSLSP
chain 2: not shown
Regarding B1, the Kd is 110 nM in assay [1], 107 nM in assay [6] and 110 nM in assay [7]. Also, the binding amount with mouse FcγRIIb [2] is 69.3 RU; in the assay with mouse FcγRIII [3], 284 RU; in the assay with mouse FcγRIV [4], 230 RU; with mouse FcγRI [5] it was 268 RU.

B2: VH3/L(WT)-IgG1-F947 (antibody)
chain 1: B1 chain 1 with T252V, T309Q, V310P, Q313A
chain 2: not shown
Take B2: the Kd in assay [1], in assay [8], in assay [6] and in assay [13] was 11 nM each time. For the same molecule, the binding amount with mouse FcγRIIb [2] is 117 RU; in the assay with mouse FcγRIII [3], 382 RU; with mouse FcγRIV [4], 242 RU; in the assay with mouse FcγRI [5], 299 RU; in the assay with mouse FcγRIIb [9] it was 129; in the assay with mouse FcγRIII [10], 664. For the same molecule, the binding amount is 279 in the assay with mouse FcγRIV [11] and 329 with mouse FcγRI [12].

B3: VH3/L(WT)-IgG1-F821 (antibody)
chain 1: B1 chain 1 with L237R, S241K, V438Y
chain 2: not shown
On to B3, for which the Kd in assay [1] and in [14] was 310 nM each time. Further, the binding amount in the assay with mouse FcγRIIb [2] was -4.5 RU; with mouse FcγRIII [3], -20.3 RU; with mouse FcγRIV [4], -3.8 RU; in the assay with mouse FcγRI [5], 0.6 RU.

B4: VH3/L(WT)-IgG1-F1009 (antibody)
chain 1: B1 chain 1 with L237R, S241K, T252V, T309Q, V310P, Q313A
chain 2: not shown
Consider B4, for which the Kd in assay [1], in [6] and in assay [15] was 12 nM in each case. Moreover, the binding amount was -1.5 RU in the assay with mouse FcγRIIb [2], -12.9 RU with mouse FcγRIII [3], 7.2 RU in the assay with mouse FcγRIV [4] and 0.6 RU with mouse FcγRI [5].

For the origin of these results see EP2698431B1 (Chugai Seiyaku Kabushiki Kaisha, dated 2020).
